In publication PMC5177931 one finds response data, which are given here for 1 molecule.

For the assay, the target named is T1, Myc-tagged PDC E1, P08559.
T1 chain: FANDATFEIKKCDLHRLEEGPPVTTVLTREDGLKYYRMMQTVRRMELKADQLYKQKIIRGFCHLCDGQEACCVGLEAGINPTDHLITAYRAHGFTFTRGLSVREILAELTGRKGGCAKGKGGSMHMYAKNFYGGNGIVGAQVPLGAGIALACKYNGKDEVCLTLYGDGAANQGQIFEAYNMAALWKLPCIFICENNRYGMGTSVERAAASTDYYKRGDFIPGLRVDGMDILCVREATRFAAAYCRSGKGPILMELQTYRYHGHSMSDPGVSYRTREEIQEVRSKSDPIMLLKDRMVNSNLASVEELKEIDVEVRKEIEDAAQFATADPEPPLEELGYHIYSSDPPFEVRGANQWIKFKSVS
Description: co-immunoprecipitation (anti-Myc IP, western blot for Flag-STAT3), band intensity printed under lanes. The note with it: chain shown with the change; 293T cells, transient transfection; printed intensities relative to EV lane = 1; parent: 9.5. (Immunoblotting shows a protein as a band on a membrane.)

B1: Flag-STAT3 WT, P40763 K685R; K707R; K709R (protein)
chain: MAQWNQLQQLDTRYLEQLHQLYSDSFPMELRQFLAPWIESQDWAYAASKESHATLVFHNLLGEIDQQYSRFLQESNVLYQHNLRRIKQFLQSRYLEKPMEIARIVARCLWEESRLLQTAATAAQQGGQANHPTAAVVTEKQQMLEQHLQDVRKRVQDLEQKMKVVENLQDDFDFNYKTLKSQGDMQDLNGNNQSVTRQKMQQLEQMLTALDQMRRSIVSELAGLLSAMEYVQKTLTDEELADWKRRQQIACIGGPPNICLDRLENWITSLAESQLQTRQQIKKLEELQQKVSYKGDPIVQHRPMLEERIVELFRNLMKSAFVVERQPCMPMHPDRPLVIKTGVQFTTKVRLLVKFPELNYQLKIKVCIDKDSGDVAALRGSRKFNILGTNTKVMNMEESNNGSLSAEFKHLTLREQRCGNGGRANCDASLIVTEELHLITFETEVYHQGLKIDLETHSLPVVVISNICQMPNAWASILWYNMLTNNPKNVNFFTKPPIGTWDQVAEVLSWQFSSTTKRGLSIEQLTTLAEKLLGPGVNYSGCQITWAKFCKENMAGKGFSFWVWLDNIIDLVKKYILALWNEGYIMGFISKERERAILSTKPPGTFLLRFSESSKEGGVTFTWVEKDISGKTQIQSVEPYTKQQLNNMSFAEIIMGYKIMDATNILVSPLVYLYPDIPKEEAFGRYCRPESQEHPEADPGSAAPYLRTRFICVTPTTCSNTIDLPMSPRTLDSLMQFGNNGEGAEPSAGGQFESLTFDMELTSECATSPM
In the case of B1, the response was found to be 2.4.
